Results as given in the supplement of paper PMC9170038.

Tested on: MS2 coat protein
Test: apparent KD of MS2 coat protein; designed switch direction (-1 OFF switch, 1 ON switch): 1; higher = weaker reporter binding
Outline: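 Stalled E. coli RNA polymerase transcribed designed RNA switches on Illumina chips, which were then titrated with SNAP-549-labelled MS2 coat protein, doubling from 0.7 or 1.5 nM to 3 µM. Steps lasted from 0.8–1.5 h at the lowest concentration to 10–20 min at the highest. The apparent KD is each design's median over clusters of curve-fitted normalised fluorescence.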

[1] = input ligand: microRNA oligo, concentration not stated
[2] = Eterna round: R95, input ligand: FMN 200 uM
[3] = Eterna round: R95, input ligand: microRNA oligo, concentration not stated
[4] = Eterna round: R95, input ligand: none

Sequence	apparent KD of MS2 coat protein (input ligand: FMN 200 uM)	apparent KD of MS2 coat protein [1]	apparent KD of MS2 coat protein (input ligand: none)	apparent KD of MS2 coat protein [2]	apparent KD of MS2 coat protein [3]	apparent KD of MS2 coat protein [4]
GCACAUGAGGAUCACCCAUGUGCGCUUGGUUGUCCAAGCGCACAGGAUAUACCUCCAAAUGGGAGGUAGAAGGGUGAAAAGAAG [Leones] (Eterna round: R96, puzzle: Same State NG 3)	0.0151 µM	0.0111 µM	0.011 µM	–	–	–
UUGCGGGUUUGAGGAUAUUGAGUACAUAUGUUUAACAUGAGGAUCACCCAUGUGGGUUGCGGUAUCGAGAAGGUAACUUACUAC [salish99_SSNG2_r04_806] (Eterna round: R96, puzzle: Same State NG 2)	0.179 µM	0.0689 µM	0.11 µM	–	–	–
UGUUAACAUGAGGAUCACCCAUGUCAAAUGAAUCGAGGAUAUGGGAAGUAAUAAGAUAAACCAGAAGGCGAAGUUG [Altered State 1-16 - Jieux - Same State 1] (puzzle: Same State 1)	–	–	–	0.0547 µM	0.302 µM	0.229 µM
UUUAUAUUCAGAGGAUAUUAAUGUAGUAUAACAUAAGAAGGCUGUUUGUUUUGUAAAGUAAUUCUACAUGAGGAUCACCCAUGU [JR_SSNG1_Sub084] (Eterna round: R96, puzzle: Same State NG 1)	–	0.0155 µM	–	–	–	–
AGCUAUUACGAAGGAUAUUGUGACAUGAGGAUCACCCAUGUCUUCAUGAUUUAUUGUGAUCACGUCGAGAAGGUUGUACUAACA [SameState NG2 #28] (Eterna round: R96, puzzle: Same State NG 2)	0.0505 µM	0.0563 µM	0.0576 µM	–	–	–
CAUAAACCUCACGAGGAUAUCCACAGAUAGACAUGAGGAUCACCCAUGUCGACUUUCGAACUGAGGGAGAAGGCGUAGGUACUAA [Gebiorge] (puzzle: Same State 2)	–	–	–	0.0121 µM	0.0131 µM	0.0134 µM
GAGAGAUGGCGAGGAUAUGCGGUGAUAAUGAUGGCAGAAGGCGCUGACAUGAGGAUCACCCAUGUGGGAAUAAUCCAGAGAGAG [Parity 17 - Jieux - Same State NG 1] (Eterna round: R96, puzzle: Same State NG 1)	0.279 µM	0.564 µM	0.683 µM	–	–	–
CUCAAACAUGAGGAUCACCCAUGUGUUGUCAUGGGAGGAUAUCUAAGUUCAUUGUAUUCAGGAGAAGGCCUAUGUC [× ×•×ª×• ×ž×“×™× ×” × ×—×ª-08] (puzzle: Same State 1)	–	–	–	–	0.284 µM	–
UGUUGUAUUACAGGAUAUCUAUGAUUUGUAUUUAGAGAAGGGUAUUCACAUGAGGAUCACCCAUGUAUAUACGAGGAAGUUGUG [JMF's solution 62] (Eterna round: R96, puzzle: Same State NG 1)	0.0675 µM	0.0485 µM	0.0623 µM	–	–	–
AAUUGUUCCUGAGGAUAUCAGUAGUUUGCUCUUUGAGAAGGCAGUACAUGAGGAUCACCCAUGUUGUGGUUUGAUAGAAUGAUA [JR_SSNG1_Sub006] (Eterna round: R96, puzzle: Same State NG 1)	0.131 µM	0.103 µM	0.137 µM	–	–	–
GUGGUCAGACAUGAGGAUCACCCAUGUGGAAUAAAUAAGGGUUAGGAUAUCUAAUAUAGGAUAUAAGAGAAGGGAUGGUUGGUG (Eterna round: R96, puzzle: Same State NG 3)	0.118 µM	0.0648 µM	0.0962 µM	–	–	–
AAAGGAUGAUGUUACAUGAGGAUCACCCAUGUAGUGAUAACUAAGGAUAUCUGUUAAAUUAAUUAAGAGAAGGUAGGAUCAUUA [AK SSNG3-V2-8.1] (Eterna round: R96, puzzle: Same State NG 3)	0.0435 µM	0.0458 µM	0.0532 µM	–	–	–
AAUCGUUUGAUAGGAUAUCGCUAUACAUGAGGAUCACCCAUGUUUACCACGCUGGUUUUUCAUACCGAGAAGGAUUCUGAUGAU [JL JR sub007 mod 10] (Eterna round: R96, puzzle: Same State NG 2)	0.036 µM	0.0312 µM	0.0352 µM	–	–	–
GGUCCAGCUUUUGCUGGUCCUUCGCUUGCACAUGAGGAUCACCCAUGUCGUGUACAUGCUUCCUGCCCGUCUUUUUU [Photon Torp-17] (puzzle: Sensor for hsa-mir-208a)	–	–	–	0.0344 µM	0.0155 µM	0.0391 µM
UUGUUUAGUAAUUAACAUGAGGAUCACCCAUGUCUUGGCUCAGAGGAUAUGCAUGUUUGAUUGUAGCAGAAGGCUGAUUGUUGU [JR_SSNG3_Sub030] (Eterna round: R96, puzzle: Same State NG 3)	0.0651 µM	0.148 µM	0.107 µM	–	–	–
GGUCCAGCCUGAGCUGGACAAAAGCAUGUACAUGAGGAUCACCCAUGUCAUGUACAAGCUUUUUGCUCGUCUUAAGA [Mat - hsa-mir-208a - 88] (puzzle: Sensor for hsa-mir-208a)	–	–	–	1.06 µM	0.0177 µM	1.02 µM

Sequence	apparent KD of MS2 coat protein (input ligand: FMN 200 uM)	apparent KD of MS2 coat protein [1]	apparent KD of MS2 coat protein (input ligand: none)	apparent KD of MS2 coat protein [2]	apparent KD of MS2 coat protein [3]	apparent KD of MS2 coat protein [4]
UUUAUAUUCAGAGGAUAUUAAAGUAGUAUAAUAUAAGAAGGCUGUUUGUUUUGUAAAUUUAUUCUACAUGAGGAUCACCCAUGU [JR_SSNG1_Sub086] (Eterna round: R96, puzzle: Same State NG 1)	–	0.0145 µM	–	–	–	–
AAUUAAGAUUAAGGAUAUCACGUCGAUUAGACGUGAGAAGGUGAUCAUAACAUGAGGAUCACCCAUGUAUUACAUGAAUUAAUU [SSNG1/3-B2] (Eterna round: R96, puzzle: Same State NG 1)	0.132 µM	0.113 µM	0.118 µM	–	–	–
GGAAUAUGAUGUUACAUGAGGAUCACCCAUGUAGUGAUAACUAAGGAUAUCUGAAAGGAAGGAGAGGAGAAGGUAGGAUCAUAA [AK SSNG3-V2-13] (Eterna round: R96, puzzle: Same State NG 3)	0.0401 µM	0.0353 µM	0.0532 µM	–	–	–
AGUCCAGCGAAAGCUGGACAAAAGCAUGUACAUGAGGAUCACCCAUGUUCAUGUACAAGUUUUUUGCUCGUCUUAAA [JL mod - D95 - 13] (puzzle: Sensor for hsa-mir-208a)	–	–	–	0.0337 µM	0.0104 µM	0.032 µM
UGAAUAGUUACAGGAUAUGAGCCGUAAAUUGGGUCAGAAGGGUGGGUGUUUUGCGCUGUGUGUUACAUGAGGAUCACCCAUGUU [SameState NG1 #32] (Eterna round: R96, puzzle: Same State NG 1)	0.206 µM	0.0867 µM	0.137 µM	–	–	–
UGCUAUCGAAAACGAUAGCUAAAGUUUGUACAUGAGGAUCACCCAUGUUGUACAAGCUUUUUGCUCGUCUUAAAUAA [JL SD Zipper 16] (Eterna round: R96, puzzle: Sensor for hsa-mir-208a)	0.0671 µM	0.0152 µM	0.0624 µM	–	–	–
UUCCCAGCGGGAGGAUAUGGUGCCUUGUUGGUGCUAGAAGGUCCAACAUGAGGAUCACCCAUGUGGGAGUGGUCGAAAGACCUC [SS NG10LRO09] (Eterna round: R96, puzzle: Same State NG 1)	0.224 µM	0.186 µM	0.318 µM	–	–	–
UCUUGGUUUUUGCUCGUUUUUUGUGUUGAACAUGAGGAUCACCCAUGUAUUGUACGGUCCGGUUUAGUAGUGGUCCA [JMF 44] (puzzle: Sensor for hsa-mir-208a)	–	–	–	0.118 µM	0.0928 µM	0.144 µM
GCUGCAAAGGCAGGAUAUGGGUUCAGAGCGGAAGUGCGCUUUGACACAUGAGGAUCACCCAUGUCCCAGAAGGGCCCAAGCGGC [Ateanso] (Eterna round: R96, puzzle: Same State NG 2)	0.0212 µM	0.12 µM	0.178 µM	–	–	–
UCUUGGUUUUUGCUCGUUUUUUGUGUUGAACAUGAGGAUCACCCAUGUAUUGUACGGUCCGAUUUGAUAAUGGUCCA [JMF 41] (puzzle: Sensor for hsa-mir-208a)	–	–	–	0.0363 µM	0.0192 µM	0.0374 µM
GCUGCAUGGGCAGGAUAUGGGUUCAGAGCGGAAGUGCGCUUUGAUACAUGAGGAUCACCCAUGUCCCAGAAGGGCCCAAGCGGC [Laleinza] (Eterna round: R96, puzzle: Same State NG 2)	0.0184 µM	0.0537 µM	0.0973 µM	–	–	–
ACAUGAGAGUCAGGAUAUAUUGUACCUACAUGUGACAUGAGGAUCACCCAUGUGGUAAGUAUGACAUAGAAGGGAUAGAUAUGU [Equivalance 85 - Jieux - Same State NG 2] (Eterna round: R96, puzzle: Same State NG 2)	0.0627 µM	0.0604 µM	0.0792 µM	–	–	–
AUUAUUUAUGCAGGAUAUGAUUAACAUGAGGAUCACCCAUGUGGUGUUGUGAGUAAGGAGAGUGAUCAGAAGGGCAAUUUUUUU [JMF's solution 42] (Eterna round: R96, puzzle: Same State NG 2)	0.709 µM	0.387 µM	0.375 µM	–	–	–
UUAAUGAUGAUAGGAUAUACAUGAGGAAUUCUCGUAGAAGGAUCAUGACAUGAGGAUCACCCAUGUAUCGCUCAGAAGAGCGUA [Mat - Same State NG 1 - JL mod - D32] (Eterna round: R96, puzzle: Same State NG 1)	1.34 µM	0.368 µM	0.528 µM	–	–	–
AUAUGAGAAGCAGGAUAUGUGAAAAAAAAACAUACAGAAGGGUUUAUGGGACAACAUGAGGAUCACCCAUGUUCUCUGUGAUGA [AK SSNG1-V2-1.1] (Eterna round: R96, puzzle: Same State NG 1)	–	0.0592 µM	–	–	–	–
